This is an account of results in publication PMC6503385, “Functional characterization of BmOVOs in silkworm, Bombyx mori”.

The target in this series is BmOVO zinc-finger domain (BmOVO-2 C-terminal) (Bombyx mori, UniProt D3YIG7 629-806). Briefly: EMSA; 0.02 mg/ml protein, poly dI.dC; LightShift EMSA kit, 20 ul: 1x binding buffer, 1 ul each poly dI.dC, NP-40, KCl, glycerol; 0.75 pM probe; 20 min at room temperature; 6% polyacrylamide gel; pH. The following applies: protein: recombinant; tags: 6xHis (pET28a); label: biotin (5' on both strands as printed); blunt.
Sequence of BmOVO zinc-finger domain (BmOVO-2 C-terminal) (D3YIG7 entry or part of it): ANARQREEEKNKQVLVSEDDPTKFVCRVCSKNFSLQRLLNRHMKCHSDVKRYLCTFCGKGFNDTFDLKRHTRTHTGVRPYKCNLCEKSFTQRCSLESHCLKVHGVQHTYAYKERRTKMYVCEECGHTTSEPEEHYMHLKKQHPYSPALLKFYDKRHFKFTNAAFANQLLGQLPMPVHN

B1: otu-A (CE1) (dsDNA)
DNA 1: GCCCCTAAAATGTACCGTTGTAACTTCTGT
DNA 2: ACAGAAGTTACAACGGTACATTTTAGGGGC
Consider B1, for which the binding result is “binds”.
